Assay results: the supplement of paper PMC10567573

B1: PTPN9 (parent)
chain: TQHLPRECLPENLGGYVKIDLATW

Variants of: B1
Test: protein stability index of a GFP-peptide fusion (GPS, HEK-293T) (PSI 1-6); higher = more stable
Conditions: c terminus: a fixed tail appended
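Also: lentivirally expressed fusions sorted by FACS into six bins by GFP to DsRed ratio, PSI derived from sequencing read proportions per bin multiplied by bin number.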

Protein stability index, by site and new letter:
R6: S 2.18, L 1.49, Q 2.31, D 2.52, Y 1.69, H 1.63, I 1.99, M 2.16, N 1.98, V 2.26, E 2.27, F 1.81, A 2.08, T 2.2, P 2.24, K 2.2, G 2.51, C 1.69, W 1.57
H3: L 1.92, N 2.03, I 1.79, C 1.91, D 2.86, P 1.77, E 2.28, G 2.1, W 1.65, R 1.56, T 2.45, A 1.84, Q 1.91, F 2.35, V 1.64, Y 1.66, S 2.15, M 1.92, K 2.03
L4: D 2.31, E 2.46, Y 1.99, R 2.04, T 1.98, H 2.53, W 2.14, N 2, G 1.96, C 2.43, F 2.06, V 1.96, M 2.38, P 2.5, A 1.8, Q 2.82, I 1.86, S 1.8, K 2.1
Q2: D 2.02, K 1.86, A 1.84, M 1.47, I 1.96, C 2.11, Y 2.48, R 1.76, H 1.52, G 2.5, L 2.17, W 1.49, P 2.02, F 1.31, E 2.08, T 1.99, S 1.73, V 1.66, N 2.05
P5: M 1.53, L 2.83, F 1.82, G 1.73, E 2.6, C 1.77, W 2.33, Y 1.64, D 2.26, A 2.18, K 2.68, I 2.88, Q 1.66, H 1.95, R 2.45, S 1.89, V 1.57, N 2.04, T 1.92
E7: W 1.93, R 2.5, I 2.52, G 1.62, V 2.22, K 1.52, Q 1.63, N 1.86, C 2.49, M 2.33, A 1.82, Y 2.19, L 2.25, F 1.74, T 1.42, H 1.85, P 2.52, D 2.2, S 1.94
C8: A 2.16, I 1.7, M 1.81, Y 2.11, F 2.3, H 2.56, P 2.16, N 2.15, W 1.72, R 1.69, T 2.19, V 2.02, L 1.8, E 2.24, G 1.78, S 2.04, D 2.48, Q 2.29, K 1.93
L9: H 1.73, S 1.75, A 2.55, Q 2.01, N 1.97, D 2.24, C 1.73, P 2.18, E 2.22, F 1.94, K 2.47, T 2.01, G 1.61, I 1.85, M 2.03, R 1.77
T1: H 2.07, Y 2.31, I 1.72, W 2.54, F 2.14, D 2.51, P 2.07, N 2.18, M 1.57, V 1.74, C 1.51, S 2.11, R 2.1, Q 2.05, G 2.15, K 1.88, L 1.67, E 2.06
